In paper PMC10164576, “Interaction with the carboxy-terminal tip of SSB is critical for RecG function in E. coli” (Nucleic Acids Research, 2023):
Positions count from the first letter of the chain named. Names and notes keep the numbering of the source. Read-outs that look alike come from different tables or passages of the source. Where a SMILES comes first, the peptide text is derived from it. Where no end group is shown, it is not given here. The star is where a group is joined. 6FAM = O=C1OC2(c3ccc(O)cc3Oc3cc(O)ccc32)c2cc(C(=O)*)ccc21

Tests used:
[1] = system: SSB-interacting proteins (SIPs); settings: cited from earlier work
Description: Most SSB-interacting proteins (SIPs) studied to date appear to share a conserved mode of SSB recognition in which they dock onto the SSB-Ct. Several SIPs have been co-crystalized with SSB-Ct peptides and their SSB-binding pockets have been validated in biochemical and/or genetic studies ([10],[12],[19],[20],[35]). SSB-Ct binding pockets have also been successfully predicted through computational methods ([36–39]). […] However, structural data ([31],[36],[108]) and predictions ([80]) reveal that the IDL is unstructured, and the length of IDLs across bacterial species varies greatly ([41]). […] Similarly, SSB fluorescent fusion proteins where GFP ...

RecG (WT) = target: T1, RecG (WT) (Escherichia coli, UniProt P24230); test: Fluorescence anisotropy binding of 6-FAM-labelled SSB peptides to wildtype RecG; design: species or system E. coli
T1 construct: RecG was expressed in STL2669/pT7pol26 (a gift from Dr Susan Lovett, Brandeis University) with overexpression plasmid pEAW111; made in house; host or cells: E. coli STL2669/pT7pol26
Procedure: SSB peptides (sequences listed in Figure 2) were designed with an N-terminal tryptophan residue for quantification and N-terminal 6-FAM label (Genscript). RecG was incubated with 0.2 M potassium glutamate, 1 mM DTT, 0.1 μg/ml BSA, 1 × RecA buffer (25 mM Tris-acetate, pH 7.6, 5% w/v glycerol, 3 mM potassium glutamate, 10 mM magnesium acetate, 1 mM DTT), and 10 nM labeled peptide at room temperature for 30 min. Fluorescence polarization (FP) values were measured at 25°C using a Beacon 2000 Fluorescence Polarization System. Polarization values were normalized to the FP value measured at 0 nM RecG. Normalized FP was converted to normalized anisotropy. Experiments were performed in triplicate, and the data were fit to a one site binding model (, where X is ligand concentration, Y is normalized anisotropy, Bmax is the maximum anisotropy, and KD is the dissociation constant) using GraphPad Prism Software.
Figure 2. RecG binds directly and specifically to the SSB-Ct. (A) Fluorescence anisotropy binding isotherms for RecG binding to SSB-Ct (black), SSB113 (violet), SSBΔF (blue), or SSB IDL (green) peptides. Peptide sequences are listed in parentheses with * representing an N-terminal 6-FAM label. Anisotropy values are normalized to the reading at 0 μM RecG. […] (B–E) ITC analysis of RecG/SSB binding. Thermograms (top) and binding isotherms (bottom) of titrations of (B) full-length SSB, (C) SSB-Ct peptide, (D) SSBΔF or (E) SSBΔF peptide into RecG solutions.
Two models explaining how RecG interacts with SSB have been proposed - RecG could interact with the SSB-Ct ([29]) or RecG could interact with the IDL ([48],[49]). To begin testing each model, we used an equilibrium fluorescence anisotropy assay to measure RecG binding to fluorescently labeled SSB-Ct or IDL peptides (Figure 2). Titration of RecG with the SSB-Ct peptide led to an increase in fluorescence anisotropy, which occurs when protein binding slows the tumbling rate of a labeled peptide ([90]). […] KD values in the low micromolar range are typical for SSB/SIP complexes ([10],[12–14],[19],[23]). […]

[2] = system: E. coli ssb mutant strains (ssbΔ151–166, ssbΔ139–164, ssbΔ130–166); test: DNA damage sensitivity spot plate assay of ssb IDL deletion strains; format: cell-based; settings: ssbΔ151–166, ssbΔ139–164 and ssbΔ130–166 versus MG1655; LB plates, 37°C overnight
Procedure: MG1655, recG, and ssb IDL mutant strains were tested for sensitivity to UV light, ciprofloxacin, or mitomycin C. A ΔrecA strain (EAW20) was used as a sensitive control in the ssb IDL experiments. Overnight cultures set in biological triplicate were used to inoculate fresh LB. Cells were grown at 37°C with shaking to an OD600 nm of 0.2 and serially diluted 10-fold in 1 × PBS. Ten μl of each dilution was spotted onto square LB agar plates (for UV) or LB plates containing DNA damaging agents (ciprofloxacin or mitomycin C) poured fresh and kept in the dark. UV sensitivity plates were exposed to shortwave light (254 nm) using a Spectrolinker XL-1000 UV crosslinker (Spectronics Corp) and incubated at 37°C overnight in the dark. Plates were imaged on an iBright Imaging System. […] Briefly, dilutions of each strain were plated onto an LB plate exposed to 0, 50 or 100 J/m^2. Plates were incubated under foil at 37°C overnight, and colonies were counted to obtain colony forming units (CFU)/ml and percent relative survival values. […]
(A) Spot plate assay showing growth of 10-fold serially diluted MG1655 (wildtype ssb), ΔrecA, ssbΔ151–166, ssbΔ139–164, ssbΔ130–166, and ssbΔ120–166 strains exposed to varying UV (top), ciprofloxacin (center), or mitomycin C (bottom) doses. (B) Quantification of strain UV percent survival relative to CFU/ml of the strain at no UV exposure.

ΦX174 RF I DNA = test: DNA-dependent ATP hydrolysis assay (coupled spectrophotometric) of RecG proteins; format: biochemical; settings: 150 nM RecG, 3 mM ATP, 37°C, pH 7.6, triplicate
Procedure: ATPase rates for wildtype and variant RecG proteins were determined using a coupled spectrophotometric assay ([86]). ATP hydrolysis reactions were conducted with 150 nM RecG in 1 × RecA buffer, supplemented with 1 mM DTT, 2.2 mM phosphor(enol)pyruvate, 10 units/ml pyruvate kinase, 10 units/ml lactate dehydrogenase, 2 mM NADH, and 3 mM ATP with varying concentrations of ΦX174 RF I (New England Biolabs) DNA at 37°C. DNA concentrations are represented in μM nucleotides (nt). A380 nm measured the conversion of NADH into NAD^+. Measurements were taken every 20–40 s on a Cary UV-Vis spectrophotometer. ATP hydrolysis rates were calculated by dividing the slope of A380 nm measurements over time over the linear region by ε380 nm = 1.21 mM^−1 cm^−1 for NADH and the cell path length (1 cm).
To more rigorously and quantitatively test the RecG HD2/SSB-Ct binding model, a RecG variant in which one of the putative SSB-binding residues is altered (RecG R474E) was purified and tested for binding to the SSB-Ct peptide and to full-length SSB in vitro. This variant was chosen because of the predicted interaction of the R474 side chain with the alpha-carboxyl group of SSB-Ct C-terminal Phe (Figure 3A). Analogous interactions have proven to be essential points of contact in other SIPs ([10],[19]). […] ATPase activity of RecG R474E was indistinguishable from that of wildtype RecG, with values for both maximal ATPase rates and the DNA concentrations required for 50% stimulation (KDNA) within error between the two proteins (Figure 4B and Table 2). Thus, we concluded that the RecG R474E variant was properly folded. To further examine the effect of the R474E sequence change, we also used ITC to measure RecG R474E binding to either the SSB-Ct or to full-length SSB. Binding was not detected in either titration (Figure 4C).
Figure 4.
We first measured binding to the SSB-Ct. […] RecG R95A binding to the SSB-Ct was expected since our experiments had shown that the peptide bound at a site in the RecG HD2 domain. […] This difference could be due to compromised DNA binding in the R95A variant. Arg95 is located on the DNA binding surface of the RecG wedge domain ([74]), and changing adjacent residues Phe96 or Phe97 to Ala results in drastic reductions in DNA binding and unwinding activity ([91]).

SSB [3] = settings: S. cerevisiae pJ69-4a; Gal4 BD-RecG (variant) with Gal4 AD-SSB; SD His- and Ade-deficient plates, 30°C, 4–5 days
Procedure: SSB, RecG or RecG variants were N-terminally fused to the DNA binding domain (pGBD) or activation domain (pGAD) of the Gal4 transcription factor. Resulting plasmids (Supplementary Table S3) were transformed ([84]) in pairs into Saccharomyces cerevisiae strain pJ69-4a ([85]) and selected for on synthetic dextrose (SD) Leu- and Trp-deficient plates. Transformants were inoculated into SD Leu- and Trp-deficient liquid medium and grown at 30°C overnight rotating. Saturated overnight cultures were diluted to an OD600 nm of 1.0 in 2% glucose and serially diluted 10-fold in 2% glucose. Dilutions were spotted (10 μl) onto SD His- and Ade-deficient plates and grown at 30°C for 4–5 days. Plates were imaged on a Fotodyne gel doc. Site-directed mutagenesis of RecG in pGBD was performed by in vivo assembly mutagenesis ([78]) of pEAW1156.
A fourth charge-reversal variant of R484 was also tested as a control to determine whether an electrostatic change that is near, but not in, the putative SSB binding site would alter RecG binding to SSB. A yeast two-hybrid assay was used as an initial method to screen several RecG variants for interaction with SSB. In the two-hybrid assay, yeast were transformed with plasmids encoding SSB and RecG fused to the Gal4 activation and binding domains, respectively, and the RecG/SSB interaction was assessed by selecting for growth on selective medium plates. […]

SSB [4] = settings: cited from earlier work
Description: In contra ... || To directly test whether the proposed RecG wedge domain IDL binding site is important for interaction with SSB, we purified a RecG R95A variant and measured its activity in vitro. […] We first measured binding to the SSB-Ct.

[5] = target: T2, RecG DNA helicase, wildtype (E. coli, UniProt P24230 1-693); test: ITC; SSB proteins or unlabeled peptides injected into RecG in the cell; 20 mM Tris-HCl pH 8.0, 150 mM NaCl, 10% glycerol, 1 mM EDTA, 1 mM β-mercaptoethanol; 25°C; one-site model; concentrations as monomers; settings: both partners purified
T2 construct: RecG DNA helicase, E. coli, expressed from overexpression plasmid pEAW111; No tag is mentioned; also called WT RecG; source: E. coli STL2669/pT7pol26 with pEAW111, purified (ammonium sulfate, DEAE, Source 15Q, Source 15S)
T2 sequence (looked up): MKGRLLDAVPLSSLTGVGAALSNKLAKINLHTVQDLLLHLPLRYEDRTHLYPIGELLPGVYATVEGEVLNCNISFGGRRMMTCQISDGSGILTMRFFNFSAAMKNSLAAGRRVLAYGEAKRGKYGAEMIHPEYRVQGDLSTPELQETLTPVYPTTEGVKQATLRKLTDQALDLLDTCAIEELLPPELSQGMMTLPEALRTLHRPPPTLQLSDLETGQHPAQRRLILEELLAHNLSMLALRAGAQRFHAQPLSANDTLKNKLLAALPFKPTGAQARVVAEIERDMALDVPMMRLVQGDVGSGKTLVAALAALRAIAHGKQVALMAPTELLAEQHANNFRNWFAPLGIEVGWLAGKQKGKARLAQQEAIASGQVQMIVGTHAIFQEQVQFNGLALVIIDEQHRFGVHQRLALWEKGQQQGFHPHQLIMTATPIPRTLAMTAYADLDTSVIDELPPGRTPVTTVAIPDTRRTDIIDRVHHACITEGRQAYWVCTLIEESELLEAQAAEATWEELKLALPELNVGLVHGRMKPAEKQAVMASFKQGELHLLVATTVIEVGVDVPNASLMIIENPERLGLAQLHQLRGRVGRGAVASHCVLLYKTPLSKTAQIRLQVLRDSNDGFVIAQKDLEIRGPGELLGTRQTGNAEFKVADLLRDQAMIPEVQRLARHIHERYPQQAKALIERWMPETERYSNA

## SSBΔF: SSB protein variant lacking the C-terminal-most Phe residue
[1]; in vitro
  interaction with SIPs, in words (SSB-Ct deletions): eliminates interactions between SSB and SIPs in vitro

## CC[C@H](C)[C@H](NC(=O)[C@H](CC(=O)O)NC(=O)[C@H](CC(=O)O)NC(=O)[C@H](CC(=O)O)NC(=O)[C@H](Cc1ccccc1)NC(=O)[C@H](CC(=O)O)NC(=O)[C@H](CCSC)NC(=O)[C@H](Cc1c[nH]c2ccccc12)NC(=O)c1ccc2c(c1)C1(OC2=O)c2ccc(O)cc2Oc2cc(O)ccc21)C(=O)N[C@@H](CO)C(=O)N[C@@H](Cc1ccccc1)C(=O)O [SSB113 peptide] (6FAM-WMDFDDDISF-OH)
RecG (WT)
  Kd: 23 ± 3.1 µM

## H-WMDFDDDIP [SSBΔF peptide]
RecG (WT); read-out: FP K D, WT RecG, fluorescence anisotropy, 10 nM N-terminal 6-FAM peptide, 0.2 M potassium glutamate, 25 mM Tris-acetate pH 7.6, 10 mM magnesium acetate, 30 min at room temperature, read at 25°C, one site fit, triplicate
  Kd: > 30 µM

## O=C(O)c1cn(C2CC2)c2cc(N3CCNCC3)c(F)cc2c1=O [ciprofloxacin]
[2]
  DNA damage sensitivity of ssb IDL deletion strains, in words: no change in DNA damage sensitivity compared to MG1655

## SSB113 protein: SSB with a Ser for the penultimate Pro of the SSB-Ct (ssb-113 mutation)
[1]; SSB113
  affinity for SIPs, in words: greatly reduced affinity for SIPs

## CO[C@@]12[C@H](COC(N)=O)C3=C(C(=O)C(C)=C(N)C3=O)N1C[C@@H]1N[C@@H]12 [mitomycin C]
[2]
  DNA damage sensitivity of ssb IDL deletion strains, in words: no change in DNA damage sensitivity compared to MG1655

B1: RecG R474E: RecG Arg474Glu charge-reversal variant, HD2 domain (protein)
chain: T2 sequence (looked up) with R474E
modifications: left off: Gal4 DNA-binding domain, N-terminal, kept
ΦX174 RF I DNA
  K DNA (DNA concentration required for 50% stimulation of ATPase): 39.9 ± 2.9 μM nt
  V max of ATP hydrolysis: 363 ± 13 µM/min
SSB [3]
  yeast two-hybrid growth on selective medium: failed to grow

B2: RecG R95A: RecG wedge domain variant (protein)
chain: T2 sequence (looked up) with R95A
modifications: left off: Gal4 DNA-binding domain, N-terminal, kept
notes: RecG wedge domain variant
ΦX174 RF I DNA
  K DNA (DNA concentration required for 50% stimulation of ATPase): 18.5 ± 4.9 μM nt
  V max of ATP hydrolysis: 127 ± 11 µM/min
SSB [3]
  yeast two-hybrid growth on selective medium: grew on the selective medium
SSB [4]; previous study
  reduction in co-purification with SSB: 24 fold
SSB [4]; prior results
  binding to SSB in co-purification assay, in words: severely reduced binding to SSB

B3: SSB-Ct peptide, unlabeled (peptide)
peptide: WMDFDDDIPF
notes: N-terminal tryptophan residue added for quantification; C-terminal tip of SSB, E. coli; source: synthetic peptide (Genscript)
[5]
  Kd: 3.9 ± 0.8 µM
  dH: -4 ± 0.5 kcal/mol
  stoichiometry N: 0.92 ± 0.08
